Test [1] concerns the target recombinant human IGF-1R (rhIGF-1R), immobilized on plates or polystyrene beads (human) (UniProt P08069). Kind of test: labeled antibody on rhIGF-1R-coated beads; competitor: unlabeled MAB391.
Test [2] has the same target. Kind of test: labeled antibody on rhIGF-1R-coated beads; competitor: unlabeled 3B7.
Test [3] shares this target. In words: labeled antibody on rhIGF-1R-coated beads; competitor: unlabeled αIR-3.
For test [4] the target is unchanged. In words: labeled antibody on rhIGF-1R-coated beads; competitor: unlabeled 24-31.
Test [5] has the same target. Kind of test: labeled antibody on rhIGF-1R-coated beads; competitor: unlabeled cR1.
For test [6] the target is unchanged. In words: labeled antibody on rhIGF-1R-coated beads; competitor: unlabeled 24-57.
For test [7] the target is unchanged. Kind of test: labeled antibody on rhIGF-1R-coated beads; competitor: unlabeled 1-2.
Test [8] has the same target. In words: labeled antibody on rhIGF-1R-coated beads; competitor: unlabeled R1.
Test [9] has the same target. In words: labeled antibody on rhIGF-1R-coated beads; competitor: unlabeled 24-60.
The target is the same in test [10]. In words: labeled antibody on rhIGF-1R-coated beads; competitor: unlabeled 1H7.
For test [11] the target is unchanged. Kind of test: labeled antibody on rhIGF-1R-coated beads; competitor: unlabeled 17-69.
Test [12] shares this target. In words: labeled antibody on rhIGF-1R-coated beads; competitor: unlabeled hR1.
For test [13] the target is unchanged. In words: labeled antibody on rhIGF-1R-coated beads; competitor: unlabeled 2C8.
For test [14], the target named is cell lines MCF-7, DU-145 and ME-180 carrying both IGF-1R and EGP-1. Kind of test: flow cytometry (FACScan), MCF-7 cells; control.
For test [15] the target is unchanged. Kind of test: flow cytometry (FACScan), MCF-7 cells; structural control.
Test [16] has as its target EGP-1 expressed on cancer cell lines (MCF-7, DU-145, ME-180) (UniProt P09758). In words: flow cytometry (FACScan), ME-180 cells.
Test [17] has the same target. In words: flow cytometry (FACScan), DU145 cells.
The target is the same in test [18]. Kind of test: flow cytometry (FACScan), MCF-7 cells.
The target of test [19] is IGF-1R expressed on cancer cell lines (MCF-7L, MCF-7, CaPan1, DU-145, ME-180, Hep G2, HT-29, LNCaP) (human) (UniProt P08069). Kind of test: 125I-IGF-1 binding to MCF-7L cells in the presence of 10 ng/mL antibody.
Test [20] has the same target. Kind of test: 125I-IGF-1 binding to MCF-7L cells in the presence of 1000 ng/mL antibody.
For test [21] the target is unchanged. In words: 125I-IGF-1 binding to MCF-7L cells in the presence of 100 ng/mL antibody.
Test [22] shares this target. Kind of test: 125I-IGF-1 binding to MCF-7L cells, 0 ng/mL antibody (reference).
Test [23] deals with T1, recombinant human IGF-1R (rhIGF-1R), immobilized on plates or polystyrene beads (human, UniProt P08069 31-935).
T1 construct: also called immobilized recombinant human IGF-1R; IGF-1R-coated beads
Kind of test: labeled antibody on rhIGF-1R-coated beads; competitor: unlabeled αIR-3.

Test [24] addresses T1, recombinant human IGF-1R (rhIGF-1R), …. In words: labeled antibody on rhIGF-1R-coated beads; competitor: unlabeled 1H7.
Test [25] has the same target. In words: labeled antibody on rhIGF-1R-coated beads; competitor: unlabeled hR1.
For test [26] the target is unchanged. Kind of test: labeled antibody on rhIGF-1R-coated beads; competitor: unlabeled 17-69.
The target is the same in test [27]. In words: labeled antibody on rhIGF-1R-coated beads; competitor: unlabeled cR1.
Test [28] shares this target. Kind of test: labeled antibody on rhIGF-1R-coated beads; competitor: unlabeled 2C8.
For test [29] the target is unchanged. Kind of test: labeled antibody on rhIGF-1R-coated beads; competitor: unlabeled 24-31.
Test [30] has the same target. In words: labeled antibody on rhIGF-1R-coated beads; competitor: unlabeled R1.
Test [31] shares this target. Kind of test: labeled antibody on rhIGF-1R-coated beads; competitor: unlabeled MAB391.
The target is the same in test [32]. In words: labeled antibody on rhIGF-1R-coated beads; competitor: unlabeled 1-2.
Test [33] has the same target. Kind of test: labeled antibody on rhIGF-1R-coated beads; competitor: unlabeled 24-60.
The target is the same in test [34]. Kind of test: labeled antibody on rhIGF-1R-coated beads; competitor: unlabeled 3B7.
The target is the same in test [35]. In words: labeled antibody on rhIGF-1R-coated beads; competitor: unlabeled 24-57.
For test [36], the target named is recombinant human insulin receptor (rhIR), immobilized (human, UniProt P06213-2 28-944, limits assumed). In words: ELISA on immobilized receptor.
Sequence of recombinant human insulin receptor (rhIR), immobilized (P06213 other isoform, or with tags, fused parts or gaps limits assumed): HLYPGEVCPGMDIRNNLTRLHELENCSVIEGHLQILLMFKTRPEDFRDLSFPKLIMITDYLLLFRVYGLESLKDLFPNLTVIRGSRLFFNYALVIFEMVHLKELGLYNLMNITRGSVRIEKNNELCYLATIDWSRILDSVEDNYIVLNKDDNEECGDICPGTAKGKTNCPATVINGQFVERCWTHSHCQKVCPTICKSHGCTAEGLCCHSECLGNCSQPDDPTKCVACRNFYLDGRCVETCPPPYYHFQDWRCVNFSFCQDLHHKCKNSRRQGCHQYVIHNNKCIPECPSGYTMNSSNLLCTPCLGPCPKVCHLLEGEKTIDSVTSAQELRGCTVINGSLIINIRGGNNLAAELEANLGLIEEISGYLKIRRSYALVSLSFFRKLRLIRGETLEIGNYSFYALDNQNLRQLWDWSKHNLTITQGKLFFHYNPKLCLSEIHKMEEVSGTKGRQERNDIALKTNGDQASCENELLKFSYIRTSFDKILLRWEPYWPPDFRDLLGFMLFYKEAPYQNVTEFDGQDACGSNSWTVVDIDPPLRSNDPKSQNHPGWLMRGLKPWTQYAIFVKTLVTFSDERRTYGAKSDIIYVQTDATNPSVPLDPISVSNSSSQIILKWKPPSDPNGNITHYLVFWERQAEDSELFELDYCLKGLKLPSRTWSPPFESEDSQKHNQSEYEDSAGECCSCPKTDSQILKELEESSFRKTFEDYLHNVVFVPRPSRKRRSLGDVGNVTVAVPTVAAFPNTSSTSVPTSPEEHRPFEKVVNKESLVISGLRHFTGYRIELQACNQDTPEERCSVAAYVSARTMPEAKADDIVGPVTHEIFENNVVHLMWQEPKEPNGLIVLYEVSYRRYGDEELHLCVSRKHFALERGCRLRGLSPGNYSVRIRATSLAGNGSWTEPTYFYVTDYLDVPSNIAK
Test [37] deals with T1, recombinant human IGF-1R (rhIGF-1R), …. In words: ELISA on immobilized rhIGF-1R (cR1 of clones 709.2D2 and 710.2G2, the same value for each).

The results in this text go back to patent US20160333098A1 (published 2016).

Sequence of EGP-1 expressed on cancer cell lines (MCF-7, DU-145, ME-180) (P09758 27-323): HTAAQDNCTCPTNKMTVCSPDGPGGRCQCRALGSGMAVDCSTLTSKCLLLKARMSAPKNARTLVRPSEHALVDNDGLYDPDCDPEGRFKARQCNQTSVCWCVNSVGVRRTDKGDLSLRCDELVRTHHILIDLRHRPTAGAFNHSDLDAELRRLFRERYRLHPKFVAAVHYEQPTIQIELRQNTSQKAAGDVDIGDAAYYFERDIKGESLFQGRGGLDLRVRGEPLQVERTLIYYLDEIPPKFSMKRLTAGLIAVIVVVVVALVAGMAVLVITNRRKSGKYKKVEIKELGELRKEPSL

Turning to anti-IGF-1R antibody αIR-3, the % binding in [1] is 0%; in [2], 76%; in test [3], 0%; in [4], 52%; in [5] it was 97%; in [6], 87%. Also, the % binding in test [7] amounted to 95%; in [8], 86%; in [9], 0%; in test [10] it was 115%; in test [11] it was 89%; in test [12] it was 107%. Moreover, the % binding in [13] turned out to be 97%.
In the case of “human IgG (control in Table 5) (antibody)”, in test [14], the % Positive was 2.34% and the MFI came out at 1.84.
In the case of “DNL construct 22-20 (hLL2 IgG-AD2 with hA20 Fab-DDD2) (bispecific antibody)”, in [15], the % Positive was found to be 3.1% and the MFI came out at 2.11.
Turning to “Hex-hRS7, monospecific hexavalent DNL construct (hRS7 IgG-AD2 with hRS7 Fab-DDD2) (antibody)”, the % Positive in [16] was 100%; in test [17], 93.7%; in test [18], 99.9%. The MFI in [16] came to 59.6; in [17] it was 17; in [18], 35.7.
For the molecule anti-IGF-1R antibody 24-60, the % binding in test [1] was 0%; in test [2], 79%; in [3], 21%; in [4] it was 18%; in [5] it was 0%; in [6], 88%. Further, the % binding in [7] stood at 100%; in [8] it was 0%; in test [9], 0%; in test [10], 100%; in [11], 82%; in test [12] it was 0%. The % binding in test [13] turned out to be 88%.
With hRS7, humanized anti-EGP-1 antibody, the % Positive in test [16] came out at 100%; in [17] it was 82.8%; in [18], 99.2%. Further, the MFI in [16] turned out to be 35.5; in [17], 10.6; in test [18] it was 21.4.
As for “MAB391, commercially available mouse anti-IGF-1R monoclonal antibody”, the % binding of 125I-IGF-1 worked out at 95% in test [19], 38% in [20], 54% in [21] and 100% in test [22]. The % binding in test [1] was determined as 0%; in [8], 40%.

B1: humanized R1 (hR1) (antibody, V domains shown)
VH: QVQLQESGGGVVQPGRSLRLSCSASGFTFSDYYMYWVRQAPGKGLEWVAYITNYGGSTYYPDTVKGRFTISRDNAKNTLFLQMDSLRPEDTGVYFCARQSNYDYDGWFAYWGQGTPVTVSS
VL: DIQLTQSPSSLSASVGDRVTITCKASQEVGTAVAWYQQKPGKAPKLLIYWASTRHTGVPSRFSGSGSGTDFTFTISSLQPEDIATYFCQQYSNYPLTFGQGTKVEIKR
notes: also called hR1 IgG; production clone 711.3C11
For B1, the “% binding” value was 136% in test [23]; 131% in test [24]; 0% in [25]; 100% in test [26]; 0% in test [27]; 100% in [28]. In addition, the “% binding” value in test [29] was found to be 100%; in [30] it was 0%; in test [31], 121%; in test [32] it was 100%; in test [33], 71%; in test [34], 100%. For the same molecule, the “% binding” value in test [35] was found to be 100%.

B2: chimeric R1 (cR1) (antibody, V domains shown)
VH: EVKLVESGGGLVQPGGSLKLSCATSGFTFSDYYMYWVRQTPEKRLEWVAYITNYGGSTYYPDTVKGRFTISRDNAKNTLYLQMSRLRSEDTAMYFCARQSNYDYDGWFAYWGQGTTVTVSS
VL: DIVMTQSHKFMSTSVGDRVSITCKASQEVGTAVAWYQQKPGQSPKLLIYWASTRHTGVPDRFTGSGSGTDFTLTISNVQSEDLADYFCQQYSNYPLTFGAGAKLELKR
notes: R1 variable domains on human constant regions of the pdHL2 vector (cR1pdHL2); also called mouse-human chimeric mAb of R1; clones 709.2D2 and 710.2G2
B2: the “% binding” value stood at 128% in test [23]; 125% in [24]; 0% in [25]; 100% in [26]; 0% in [27]; 100% in test [28]. Also, the “% binding” value in test [29] worked out at 100%; in test [30], 0%; in [31] it was 108%; in test [32], 100%; in test [33], 40%; in [34] it was 106%. Further, the “% binding” value in test [35] is 100%. For the same molecule, the binding result in test [36] is listed as “no binding”. For the same molecule, the Kd in test [37] is about 0.1 nM.
